In PMC9117880:
Several values for one entry are separate records, joined by “and”; a condition that tells them apart may be missing. Identical values can stand only once. Like-named read-outs stand apart in the source and are kept apart here.

Key:
Test in all cases: MST
[1] = target: SRS-MTBD (22/19) D3402A mutant (not stated | mouse)
[2] = target: SRS-MTBD (22/19) D3402A mutant (not stated | mouse); remark: listed apart in the source
[3] = target: SRS-MTBD (22/19) D3402A mutant (not stated | mouse); remark: listed apart in the source
[4] = target: SRS-MTBD (22/19) D3402A mutant (not stated | mouse); remark: listed apart in the source

taxol-stabilized, unlabeled microtubules (porcine brain tubulin) (from UniProt P02550 1-451) (complex)
Kd [1]: 5.49 µM
Kd [2]: 13 µM and 14.7 µM
Kd [3]: 0.53 µM
Kd [4]: 0.46 µM
